The source of these data is IntAct's records for PubMed 10846174.

First the molecules themselves.
B1: Apoptosis regulator ced-9 (Caenorhabditis elegans), P41958 (parent)
chain: MTRCTADNSLTNPAYRRRTMATGEMKEFLGIKGTEPTDFGINSDAQDLPSPSRQASTRRMSIGESIDGKINDWEEPRLDIEGFVVDYFTHRIRQNGMEWFGAPGLPCGVQPEHEMMRVMGTIFEKKHAENFETFCEQLLAVPRISFSLYQDVVRTVGNAQTDQCPMSYGRLIGLISFGGFVAAKMMESVELQGQVRNLFVYTSLFIKTRIRNNWKEHNRSWDDFMTLGKQMKEDYERAEAEKVGRRKQNRRWSMIGAGVTAGAIGIVGVVVCGRMMFSLK
partner: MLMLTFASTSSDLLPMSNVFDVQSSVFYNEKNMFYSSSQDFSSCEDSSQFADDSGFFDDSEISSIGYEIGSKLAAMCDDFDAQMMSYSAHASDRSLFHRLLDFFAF
B2: Apoptosis regulator ced-9 (Caenorhabditis elegans), P41958 (parent)
chain: B1 chain
partner: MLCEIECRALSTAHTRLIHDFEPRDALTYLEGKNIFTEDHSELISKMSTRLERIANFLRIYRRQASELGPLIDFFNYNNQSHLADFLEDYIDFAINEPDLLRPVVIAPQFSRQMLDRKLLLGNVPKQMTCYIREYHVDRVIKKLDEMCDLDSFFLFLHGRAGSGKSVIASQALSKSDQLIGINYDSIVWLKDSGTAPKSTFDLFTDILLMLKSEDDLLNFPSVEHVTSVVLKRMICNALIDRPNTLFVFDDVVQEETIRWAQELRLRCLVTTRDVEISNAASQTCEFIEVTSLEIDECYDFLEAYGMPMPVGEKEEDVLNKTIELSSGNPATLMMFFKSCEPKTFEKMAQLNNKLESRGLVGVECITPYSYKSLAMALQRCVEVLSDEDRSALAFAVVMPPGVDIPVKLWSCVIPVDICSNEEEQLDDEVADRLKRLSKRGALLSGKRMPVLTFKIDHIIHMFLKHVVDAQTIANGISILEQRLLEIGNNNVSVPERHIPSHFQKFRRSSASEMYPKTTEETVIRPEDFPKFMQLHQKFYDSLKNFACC

The first experiment covers variants of B1. The conditions noted are these: with egl1_caeel egl-1, O61667.
As for G169E, the “effect of a mutation on the interaction” value was “with no effect”.

Another experiment covers variants of B1. The conditions noted are these: with egl1_caeel egl-1, O61667. The source holds these as a separate data set.
With G169E, the “effect of a mutation on the interaction” value was “decreasing interaction strength”.

The next experiment covers variants of B2. The conditions noted are these: with ced4_caeel ced-4, P30429.
For the variant G169E, the “effect of a mutation on the interaction” value is reported as “with no effect”.
